From patent US20120009181A1, “Folate Receptor 1 Antibodies and Immunoconjugates and Uses Thereof” (published 2012)
Where a chain is given by its changes, count along the chain named. One block for each binder: values may come before it.

Experiments:
[1] = biological target: human folate receptor 1 (FOLR1) (human); assay: column head 'Apparent affinity (nM)'; method not restated (analyzed as described above: flow cytometry on FOLR1-expressing cells)
[2] = biological target: human folate receptor 1 (FOLR1) (human); assay: cell-based or functional assay
[3] = biological target: human folate receptor 1 (FOLR1) (human); assay: cell-based or functional assay; remark: listed apart in the source
[4] = biological target: human folate receptor 1 (FOLR1) (human); assay: cell-based or functional assay; remark: listed apart in the source

Chain of human folate receptor 1 (FOLR1) (human) (chain, as listed by the source limits assumed): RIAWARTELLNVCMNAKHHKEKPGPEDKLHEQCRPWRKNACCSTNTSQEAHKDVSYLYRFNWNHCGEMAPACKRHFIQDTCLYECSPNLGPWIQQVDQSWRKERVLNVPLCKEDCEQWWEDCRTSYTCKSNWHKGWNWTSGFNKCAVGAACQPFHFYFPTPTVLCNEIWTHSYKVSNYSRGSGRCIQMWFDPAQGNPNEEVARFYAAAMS

Kd [1]: 0.13 nM
B1: huFR1-48 (antibody, V domains shown)
VH: QVQLVQSGAEVAKPGASVKLSCKASGYTFTNYWMQWIKQRPGQGLEWIGAIYPGNGDSRYTQKFQGKATLTADKSSSTAYMQVSSLTSEDSAVYYCARRDGNYAAYWGQGTLVTVSA
VL: DIQMTQSPSSLSVSVGERVTITCRASENIYSNLAWYQQKPGKSPKLLVYAATNLADGVPSRFSGSESGTDYSLKINSLQPEDFGSYYCQHFWASPYTFGQGTKLEIKR

huAb-smcc-DM1 activity on KB in vitro [2]: 0.1 nM
B2: huFR1-49-SMCC-DM1 (antibody, V domains shown)
VH: QVQLQQSGAVVAKPGASVKMSCKASGYTFTNYWMYWIKQRPGQGLELIGAIYPGNSDTTYNQKFQGKATLTAVTSANTVYMEVSSLTSEDSAVYYCTKRHDYGAMDYWGQGTSVTVSS
VL: B1 VL with S31T, A50T, T52S, E66G, S85T, A93V
modifications: maytansinoid DM1 linked to the antibody through the SMCC linker; drug load and attachment residues not stated

Kd [1]: 0.08 nM
B3: huFR1-49 (antibody, V domains shown)
VH: B2 VH
VL: B1 VL with S31T, A50T, T52S, E66G, S85T, A93V

huAb-smcc-DM1 activity on KB in vitro [2]: 0.05 nM
B4: huFR1-48-SMCC-DM1 (antibody, V domains shown)
VH: B1 VH
VL: B1 VL
modifications: maytansinoid DM1 linked to the antibody through the SMCC linker; drug load and attachment residues not stated

EC50 of ADCC activity on IGROV-1 cells [3]: 0.11 ng/mL
B5: huFR1-21 (antibody, V domains shown)
VH: EVQLVESGGDVVKPGGSLKLSCAASGFTFSSYGMSWVRQTPGKGLECVATISSGGSYTYYSPGFQGRFTISRDKSKNTLYLQMSSLKAEDTAMYYCARDGEGGLYAMDYWGQGTSVTVSS
VL: DIQMTQSSSSLSVSVGGRVTITCKASDHINNWLAWYQQKPGKAPKLLISGATSLETGVPSRFSGSGSGKDYTLSISSLQPEDVATYYCQQYWSTPFTFGQGTKLEIKR

Kd [1]: 0.14 nM
B6: huFR1-57 (antibody, V domains shown)
VH: EVQLVESGGGLVQPGGSRRLSCAASGFTFSSFGMHWVRQAPGKGLEWVAYISSGSSTISYADSVKGRFTISRDNSKKTLLLQMTSLRAEDTAMYYCAREAYGSSMEYWGQGTLVTVSS
VL: EIVLTQSPATLSVTPGDRVSLSCRASQNINNNLHWYQQKPGQSPRLLIKYVSQSVSGIPDRFSGSGSGTDFTLSISSVEPEDFGMYFCQQSNSWPHYTFGQGTKLEIKR

huAb-smcc-DM1 activity on KB in vitro [2]: 0.1 nM
B7: huFR1-57-SMCC-DM1 (antibody, V domains shown)
VH: B6 VH
VL: B6 VL
modifications: maytansinoid DM1 linked to the antibody through the SMCC linker; drug load and attachment residues not stated

Kd [1]: 0.15 nM
B8: huFR1-65 (antibody, V domains shown)
VH: QVQLVQSGAEVAKPGASVKMSCKASGYTFTSYTMHWVKQRPGQGLAWIGYINPISGYTNYNQKFQGKATLTADKSSSTAYMQLNSLTSEDSAVYYCASGGAYGRKPMDYWGQGTSVTVSS
VL: EIVMTQSPATMSTSPGDRVSVTCKASQNVGPNVAWYQQKPGQSPRALIYSASYRYSGVPARFTGSGSGTDFTLTISNMQSEDLAEYFCQQYNSYPYTFGQGTKLEIKR

huAb-smcc-DM1 activity on KB in vitro [2]: 0.1 nM
B9: huFR1-65-SMCC-DM1 (antibody, V domains shown)
VH: B8 VH
VL: B8 VL
modifications: maytansinoid DM1 linked to the antibody through the SMCC linker; drug load and attachment residues not stated

Kd [1]: 0.06 nM
B10: huMov19 (antibody, V domains shown)
VH: QVQLVQSGAEVVKPGASVKISCKASGYTFTGYFMNWVKQSPGQSLEWIGRIHPYDGDTFYNQKFQGKATLTVDKSSNTAHMELLSLTSEDFAVYYCTRYDGSRAMDYWGQGTTVTVSS
VL: DIVLTQSPLSLAVSLGQPAIISCKASQSVSFAGTSLMHWYHQKPGQQPRLLIYRASNLEAGVPDRFSGSGSKTDFTLNISPVEAEDAATYYCQQSREYPYTFGGGTKLEIKR

B11: huMov19-SPP-DM1 (antibody, V domains shown)
VH: B10 VH
VL: B10 VL with N78T
modifications: maytansinoid DM1 linked to the antibody through the SPP linker, 3.5-4 DM1 per antibody; attachment residues not stated
IC50, nM (n = 3), Ab-based; in vitro cytotoxicity on IGROV-1 cells [4]: 0.1 nM | IC50, nM (n = 3), Ab-based; in vitro cytotoxicity on JEG-3 cells [4]: 0.2 nM | IC50, nM (n = 3), Ab-based; in vitro cytotoxicity on KB cells [4]: 0.1 nM
